Data: PMC6208348
Like-named read-outs stand apart in the source and are kept apart here.

How the values were obtained:
[1] = target: DnaJ-A1-pTyr381 ∆C peptide (human) (UniProt P31689); assay: FP
[2] = target: DnaJ-A1-pTyr381 ∆N peptide (human) (UniProt P31689); assay: FP
[3] = target: Shc1-pTyr239; assay: FP
[4] = target: Shc1-pTyr317; assay: FP
[5] = target: VCP-pTyr805-tail7; assay: FP
[6] = target: EGFR-pTyr954; assay: FP
[7] = target: EGFR-pTyr1086; assay: FP
[8] = target: mini peptide GGpYGG; assay: fluorescence polarisation
[9] = target: MidT-pTyr324; assay: FP; settings: natural protein

Substance: L. anisa LeSH1b (Lani_2495)
- Kd ([1]; natural protein): > 50 µM
- Kd ([2]; natural protein): > 50 µM
- Kd ([3]; natural protein): > 50 µM
- Kd ([4]; natural protein): > 50 µM
- Kd ([5]; natural protein): > 50 µM

Substance: L. anisa LeSH2a (Lani_0711)
- Kd ([6]; natural protein): 7.98 µM
- Kd ([3]; natural protein): 3.05 µM
- Kd ([5]; natural protein): 2.53 µM

Substance: L. anisa LeSH2b (Lani_WP_019234638)
- Kd ([1]; natural protein): 16.5 µM
- Kd ([2]; natural protein): 22.6 µM
- Kd ([7]; natural protein): > 50 µM
- Kd ([6]; natural protein): > 50 µM
- Kd ([3]; natural protein): 38.1 µM
- Kd ([4]; natural protein): 40.6 µM
- Kd ([5]; natural protein): 31.2 µM

Substance: L. dumoffii LUSH (natural protein)
- Kd [8]: 0.38 µM

Substance: L. dumoffii LeSH1a
- Kd ([1]; natural protein): > 50 µM
- Kd ([2]; natural protein): > 50 µM
- Kd [9]: > 50 µM
- Kd ([3]; natural protein): > 50 µM
- Kd ([4]; natural protein): > 50 µM
- Kd ([5]; natural protein): > 50 µM

Substance: L. dumoffii LeSH2
- Kd ([7]; natural protein): 14.7 µM
- Kd ([3]; natural protein): 2.46 µM
- Kd ([4]; natural protein): 9.35 µM
- Kd ([5]; natural protein): 9.1 µM

Substance: L. dumoffii LeSH2 (natural protein)
- Kd [8]: 14.7 µM

Substance: L. longbeachae LeSH (natural protein)
- Kd [8]: 3.6 µM

Substance: L. pneumophila DoSH C-SH2
- Kd [2]: 31.9 µM
- Kd [7]: 12.5 µM

Substance: L. pneumophila LeSH2
- Kd [1]: 1.09 µM
- Kd [7]: 31.4 µM
- Kd [6]: 44.6 µM
- Kd [3]: 3.66 µM
- Kd [4]: 8.77 µM

Substance: L. waltersii LeSH5 tandem SH2
- Kd [1]: 28.7 µM
- Kd [2]: 15 µM
- Kd [7]: 33.5 µM
- Kd [3]: 6.17 µM
- Kd [4]: 13.8 µM

Substance: Src SH2 TrM (superbinder)
- Kd [5]: 1.2 µM
